The values that follow come from patent publication US20250076311A1 (Chugai, published 2025).

Where a chain is given by its changes, count along the chain named. Numbers in names are those of the source.

The target in experiment [1] is T1, human FcγRIIIaV extracellular domain with C-terminal His-tag (human, UniProt P08637 17-208).
T1 construct: also called human FcgRIIIaV; not shown: His-tag added to the C-terminus
Kind of experiment: SPR (BIACORE), antibody captured, FcgR analyte.

The target of experiment [2] is T2, human FcγRIIaR extracellular domain with C-terminal His-tag (human, UniProt P12318 34-217).
T2 construct: also called human FcgRIIaR; FcγRIIa type R; not shown: His-tag added to the C-terminus
T2 chain: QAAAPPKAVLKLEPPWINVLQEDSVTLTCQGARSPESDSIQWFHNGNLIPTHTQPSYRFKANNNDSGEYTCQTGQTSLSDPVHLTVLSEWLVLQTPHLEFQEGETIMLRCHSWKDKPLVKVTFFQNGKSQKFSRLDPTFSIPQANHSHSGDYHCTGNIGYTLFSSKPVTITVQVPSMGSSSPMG
Kind of experiment: SPR (BIACORE), antibody captured, FcgR analyte.

Experiment [3] has as its target T3, cynomolgus monkey FcγRIIIaS extracellular domain with C-terminal His-tag (cynomolgus monkey, UniProt A3RFZ7 21-206 (rhesus entry)).
T3 construct: also called cyno FcgRIIIaS; cynoFcγRIIIaS; not shown: His-tag added to the C-terminus
Kind of experiment: SPR (BIACORE), antibody captured, FcgR analyte.

Experiment [4] concerns the target T4, human FcγRIIaH extracellular domain with C-terminal His-tag (human, UniProt P12318 34-217).
T4 construct: also called human FcgRIIaH; FcγRIIa type H; not shown: His-tag added to the C-terminus
T4 sequence: T2 chain with R134H
Kind of experiment: SPR (BIACORE); KD of SG1 / KD of variant.

Experiment [5] concerns the target T3, cynomolgus monkey FcγRIIIaS …. Kind of experiment: SPR (BIACORE); KD of SG1 / KD of variant.
Experiment [6] has as its target T5, human FcγRIIb extracellular domain, His-tagged (human, UniProt P31994 43-217).
T5 construct: also called FcgRIIb (human)
T5 sequence: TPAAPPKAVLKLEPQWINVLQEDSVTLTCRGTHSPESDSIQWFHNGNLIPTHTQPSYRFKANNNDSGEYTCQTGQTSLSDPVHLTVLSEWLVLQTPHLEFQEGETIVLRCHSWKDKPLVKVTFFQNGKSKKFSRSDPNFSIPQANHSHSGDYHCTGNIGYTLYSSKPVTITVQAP
The experiment can be described thus: SPR, 25C, antibody captured, FcγR as analyte. As to the method:
(§1) The kinetic analysis of interactions between these antibodies and FcγR was carried out using BIACORE® T200 or BIACORE® 4000 (GE Healthcare). HBS-EP+ (GE Healthcare) was used as the running buffer, and the measurement temperature was set to 25° C. […] After the measurement, the antibody captured on the chip was washed off by allowing reaction with 10 mM glycine-HCl, pH1.5 and 25 mM NaOH so that the chip was regenerated and used repeatedly. The sensorgrams obtained as measurement results were analyzed by the 1:1 Langmuir binding model using the BIACORE® Evaluation Software to calculate the binding rate constant ka (L/mol/s) and dissociation rate constant kd (1/s), and the dissociation constant KD (mol/L) was calculated from these values. […] Regarding such interactions, KD values were calculated using the following 1:1 binding model described in BIACORE® T100 Software Handbook BR1006-48 Edition AE.

Experiment [7] has as its target T6, human FcγRIIaH extracellular domain with C-terminal His-tag (human, UniProt P12318 34-217).
T6 construct: also called human FcgRIIaH; FcγRIIa (type H)
T6 sequence: T2 chain with R134H
The experiment can be described thus: SPR (Biacore), antibody captured, FcgR analyte. The procedure: as §1

For experiment [8], the target named is T7, cynomolgus monkey FcγRIIb extracellular domain with C-terminal His-tag (cynomolgus monkey).
T7 construct: also called cyno FcgRIIb; cynoFcγRIIb; not shown: His-tag added to the C-terminus
T7 chain: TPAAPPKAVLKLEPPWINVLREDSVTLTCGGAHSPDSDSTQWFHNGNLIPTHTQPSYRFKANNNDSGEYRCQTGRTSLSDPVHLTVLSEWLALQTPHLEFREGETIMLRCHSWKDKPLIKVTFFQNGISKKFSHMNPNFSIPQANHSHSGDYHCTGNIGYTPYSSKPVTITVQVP
The experiment can be described thus: SPR (BIACORE), antibody captured, FcgR analyte.

Experiment [9] addresses T8, cynomolgus monkey FcγRIIa3 extracellular domain with C-terminal His-tag (cynomolgus monkey).
T8 construct: also called cyno FcgRIIa3; cynoFcγRIIa3; not shown: His-tag added to the C-terminus
T8 chain: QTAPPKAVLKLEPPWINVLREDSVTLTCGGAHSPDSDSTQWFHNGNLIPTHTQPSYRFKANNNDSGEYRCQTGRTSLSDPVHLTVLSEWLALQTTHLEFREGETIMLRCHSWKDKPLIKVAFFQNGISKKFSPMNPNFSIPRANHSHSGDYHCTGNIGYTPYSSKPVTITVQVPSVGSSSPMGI
The experiment can be described thus: SPR (BIACORE), antibody captured, FcgR analyte.

Experiment [10] has as its target T9, cynomolgus monkey FcγRIIa1 extracellular domain with C-terminal His-tag (cynomolgus monkey).
T9 construct: also called cyno FcgRIIa1; cynoFcγRIIa1; not shown: His-tag added to the C-terminus
T9 chain: T8 chain with T95P, A121T, S128A, P133H, N135D
Kind of experiment: SPR (BIACORE), antibody captured, FcgR analyte.

The target in experiment [11] is T10, human FcγRIIb extracellular domain with C-terminal His-tag (human, UniProt P31994 43-217).
T10 construct: also called human FcgRIIb; not shown: His-tag added to the C-terminus
T10 sequence: T5 sequence
The experiment can be described thus: SPR (BIACORE), antibody captured, FcgR analyte.

In experiment [12] the target is T11, cynomolgus monkey FcγRIIa2 extracellular domain with C-terminal His-tag (cynomolgus monkey).
T11 construct: also called cyno FcgRIIa2; cynoFcγRIIa2; not shown: His-tag added to the C-terminus
T11 chain: T8 chain with I127K, K130N, P133H, R142Q
Kind of experiment: SPR (BIACORE), antibody captured, FcgR analyte.

Experiment [13] has as its target T12, cynomolgus monkey FcγRIIIaS extracellular domain with C-terminal His-tag (cynomolgus monkey, UniProt Q8SPW2 21-206 at identity 1.00)).
T12 construct: also called cyno FcgRIIIaS; cynoFcγRIIIaS
T12 chain: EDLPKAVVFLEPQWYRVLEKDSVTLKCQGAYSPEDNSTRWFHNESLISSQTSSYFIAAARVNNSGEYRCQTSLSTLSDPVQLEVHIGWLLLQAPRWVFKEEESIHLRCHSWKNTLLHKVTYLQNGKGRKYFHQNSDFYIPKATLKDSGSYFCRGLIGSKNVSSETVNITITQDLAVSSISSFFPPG
Kind of experiment: SPR (Biacore), antibody captured, FcgR analyte. The procedure:
as §1

Experiment [14] has as its target T13, cynomolgus monkey FcγRIIa2 extracellular domain with C-terminal His-tag (cynomolgus monkey).
T13 construct: also called cyno FcgRIIa2; cynoFcγRIIa2
T13 chain: T8 chain with I127K, K130N, P133H, R142Q
Kind of experiment: SPR (Biacore), KD of SG1 / KD of variant.

In experiment [15] the target is T14, cynomolgus monkey FcγRIIa3 extracellular domain with C-terminal His-tag (cynomolgus monkey).
T14 construct: also called cyno FcgRIIa3; cynoFcγRIIa3
T14 chain: T8 chain
Kind of experiment: SPR (Biacore), KD of SG1 / KD of variant.

T1 sequence (P08637 17-208 F176V): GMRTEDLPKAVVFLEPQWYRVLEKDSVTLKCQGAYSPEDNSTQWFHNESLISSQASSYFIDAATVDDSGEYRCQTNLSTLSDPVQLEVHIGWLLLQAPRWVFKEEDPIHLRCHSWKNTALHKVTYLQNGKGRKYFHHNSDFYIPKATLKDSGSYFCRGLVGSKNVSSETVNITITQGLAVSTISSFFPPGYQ

B1: M103205H795-MY117/M103202L889-SK1 (antibody)
heavy: QVTLKESGPVLVKPTETLTLTCTVSGIDLSHDDISWVRQAPGKGLEWVGIISYAGSTYYASWAKGRLTISKDTSKNQVVLTMTNMDPVDTATYYCARGVPAYSHGGDLWGQGTLVTVSSASTKGPSVFPLAPSSKSTSGGTAALGCLVKDYFPEPVTVSWNSGALTSGVHTFPAVLQSSGLYSLSSVVTVPSSSLGTQTYICNVNHKPSNTKVDKKVEPKSCDKTHTCPPCPAPEWLNGPSVFLFPPKPKDTLMISRTPEVTCVVVDVAEEDPEVKFNWYVDGVEVHNAKTKPREEQYNSTYRVVSVLTVLHQDWLNGKEYKCKVSNKALPAPIEKTISKAKGQPREPQVYTLPPSREEMTKNQVSLTCLVKGFYPSDIAVEWESNGQPENNYKTTPMVLDSDGSFFLYSKLTVDKSRWQQGNVFSCSVMHEALHNHYTQKSLSLSP
light: DIVMTQSPATLSLSPGERATLSCTSSQSVYHANWLSWFQQKPGQPPKLLIYWASTLAYGVPSRFSGSGSGTDFTLTISSLQPEDAATYYCAGGYGGGRYAFGQGTKVEIKRTVAAPSVFIFPPSDEQLKSGTASVVCLLNNFYPREAKVQWKVDNALQSGNSQESVTEQDSKDSTYSLSSTLTLSKADYEKHKVYACEVTHQGLSSPVTKSFNRGEC
notes: Fc variant of MS1032LO06-SG1; EU numbering
On to B1, for which the Kd was 7.9 µM in experiment [1], 1 µM in experiment [2] and 1 µM in experiment [3]. Further, the “KD fold (SG1 = 1)” value was determined as 0.5 fold in experiment [4] and 0.36 fold in experiment [5].

B2: MS103240H795-SG1074/M103202L1045-SK1 (antibody, name in EU numbering)
heavy: QVQLVESGGGLVQPGGSLRLSCAVSGIDLSHDDISWVRQAPGKGLEWVSIISYAGSTYYASWAKGRLTISKDTSKNQVVLTMTNMDPVDTATYYCARGVPAYSHGGDLWGQGTLVTVSSASTKGPSVFPLAPSSKSTSGGTAALGCLVKDYFPEPVTVSWNSGALTSGVHTFPAVLQSSGLYSLSSVVTVPSSSLGTQTYICNVNHKPSNTKVDKKVEPKSCDKTHTCPPCPAPELLNGPSVFLFPPKPKDTLMISRTPEVTCVVVDVSDEDPEVKFNWYVDGVEVHNAKTKPREELYNSTYRVVSVLTVLHRDWLNGKEYKCKVSNTALPKPIEKTISKAKGQRREPQVYTLPPSREEMTKNQVSLTCLVKGFYPSDIAVEWESNGQPENNYKTTPPVLDSDGSFFLYSKLTVDKSRWQQGNVFSCSVLHEALHAHTTRKELSLSP
light: B1 light with S25T, A32E
notes: also called MS1032LO19-SG1074
Take B2: the “fold enhanced affinity compared to SG1” value in [6] came to 10 fold.

B3: MS103240H795-SG1080/M103202L1045-SK1 (antibody, name in EU numbering)
heavy: B2 heavy with L430M, T438Y
light: B1 light with S25T, A32E
notes: Built from the text: MY209 plus Q311R/P343R and N434A/Q438R/S440E; also called MS1032LO19-SG1080
Regarding B3, the “fold enhanced affinity compared to SG1” value in [6] amounted to 10 fold.

B4: M103205H795-MY449/M103202L889-SK1 (antibody, human IgG1, kappa)
heavy: B1 heavy with P234L, W236L, N238T, A269S, E270D, A332K, M398P
light: B1 light
notes: Substitutions in EU numbering on SG1
Consider B4, for which the Kd in [7] is 0.098 µM.

B5: M103205H795-MY145/M103202L889-SK1 (antibody, human IgG1, kappa, name in EU numbering)
heavy: B1 heavy with W236L, A269S, P333E
light: B1 light
notes: Fc variant of MS1032LO06-SG1; positions in EU numbering
Regarding B5, the dissociation constant Kd was determined as 9.1 µM in experiment [1]; 0.98 µM in experiment [8]; 10 µM in [9]; 2.5 µM in [2]; 3.6 µM in experiment [3]; 1.9 µM in experiment [10]. Besides, the Kd came out at 1.2 µM in experiment [11] and 2.4 µM in experiment [12].

B6: MS103205H795-SG1016/M103202L889-SK1 (antibody, human IgG1, kappa)
heavy: B1 heavy with W236L, A269S, Q313R, A332K, D401K, N436A
light: B1 light
notes: Built from the text: Q311R/D399K introduced into SG1012; also called MS1032LO06-SG1016
On to B6, for which the “fold enhanced affinity compared to SG1” value in experiment [6] was determined as 10 fold.

B7: M103205H795-MY458/M103202L889-SK1 (antibody, human IgG1, kappa)
heavy: B1 heavy with P234Y, W236L, N238T, A269S, E270D, A332K, M398P
light: B1 light
notes: as for B4
Molecule B7 had a Kd in [13] of 1.9 µM.

B8: MS103205H795-SG1012/M103202L889-SK1 (antibody, human IgG1, kappa)
heavy: B1 heavy with W236L, A269S, A332K, N436A
light: B1 light
notes: also called MS1032LO06-SG1012
In the case of B8, the “fold enhanced affinity compared to SG1” value in experiment [6] was determined as 10 fold.

B9: M103205H795-MY454/M103202L889-SK1 (antibody, human IgG1, kappa)
heavy: B1 heavy with P234S, W236L, N238T, A269S, E270D, A332K, M398P
light: B1 light
notes: as for B4
With B9, the “KD fold (SG1 = 1)” value in experiment [14] was 1.8 fold; in experiment [15], 2.2 fold. For the same molecule, the equilibrium dissociation constant (Kd) in experiment [13] was 2.8 µM.
